Sequences and labels used below:
B1: SPRY1 (parent)
chain: WIHRPGCRCKNSNTVYCKLESCPS

Protein stability index data for 94 variants are collected here from the supplement of paper PMC10567573.
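Note: lentivirally expressed fusions sorted by FACS into six bins by GFP to DsRed ratio, PSI derived from sequencing read proportions per bin multiplied by bin number.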

In this series the parent is B1. Briefly: protein stability index of a GFP-peptide fusion (GPS, HEK-293T) (PSI 1-6); higher = more stable. Particulars: c terminus: a fixed tail appended.
As to WIHRNGCRCKNSNTVYCKLESCPS, the protein stability index was found to be 2.39.
As for WIHRTGCRCKNSNTVYCKLESCPS, the protein stability index is 2.37.
Take WIHRLGCRCKNSNTVYCKLESCPS: the protein stability index worked out at 2.77.
Take WIHREGCRCKNSNTVYCKLESCPS: the protein stability index came out at 3.08.
Regarding WIHRKGCRCKNSNTVYCKLESCPS, the protein stability index came to 2.21.
On to WIHRWGCRCKNSNTVYCKLESCPS, for which the protein stability index was determined as 1.82.
On to WIHRDGCRCKNSNTVYCKLESCPS, for which the protein stability index stood at 3.42.
For WIHRCGCRCKNSNTVYCKLESCPS the value was 2.02.
For WIHRYGCRCKNSNTVYCKLESCPS the value was 3.19; for WIHRSGCRCKNSNTVYCKLESCPS, 2.27; for WIHRAGCRCKNSNTVYCKLESCPS, 2.02.
Turning to WIHRPQCRCKNSNTVYCKLESCPS, the protein stability index worked out at 2.16.
As for WIHRPTCRCKNSNTVYCKLESCPS, the protein stability index amounted to 3.09.
For WIHRPNCRCKNSNTVYCKLESCPS the value was 2.37; for WIHRPACRCKNSNTVYCKLESCPS, 2.15; for WIHRPMCRCKNSNTVYCKLESCPS, 2.16.
For WIHRPSCRCKNSNTVYCKLESCPS the value was 2.48; for WIHRPGCRCKNSVTVYCKLESCPS, 2.04; for WIHRPGCRCKNSRTVYCKLESCPS, 1.88.
Turning to WIHRPGCRCKNSSTVYCKLESCPS, the protein stability index came out at 2.06.
For WIHRPGCRCKNSTTVYCKLESCPS the value was 2.4; for WIHRPGCRCKNSQTVYCKLESCPS, 2.26; for WIHRPGCRCKNSMTVYCKLESCPS, 2.74.
Next, WIHRPGCRCKNSLTVYCKLESCPS: 2.31.
Next, WIHRPGCRCKNSKTVYCKLESCPS: 1.17; WIHRPGCRCKNSGTVYCKLESCPS: 2.23; WIHRPGCRCKNSNTVYCKLISCPS: 1.5.
In the case of WIHRPGCRCKNSNTVYCKLKSCPS, the protein stability index worked out at 2.07.
Turning to WIHRPGCRCKNSNTVYCKLASCPS, the protein stability index was 1.84.
Next, WIHRPGCRCKNSNTVYCKLLSCPS: 2.06.
Next, WIHRPGCRCKNSNTVYCKLHSCPS: 1.78; WIHRPGCRCKNSNTVYCKLSSCPS: 2.77; WIHRPGCRCKNSNTVYCKLQSCPS: 2.12.
WIHRPGCRCKNSNTVYCFLESCPS: the protein stability index amounted to 1.74.
For WIHRPGCRCKNSNTVYCDLESCPS the value was 3.3; for WIHRPGCRCKNSNTVYCWLESCPS, 1.63; for WIHRPGCRCKNSNTVYCNLESCPS, 2.66.
Next, WIHRPGCRCKNSNTVYCVLESCPS: 1.7; WIHRPGCRCKNSNTVYCYLESCPS: 1.73; WIHRPGCRCKNSNTVYCQLESCPS: 2.25.
Regarding WIHRPGCRCKNSNTVYCPLESCPS, the protein stability index came to 2.03.
For WIHRPGCRCKNSNTVYCILESCPS the value was 1.68; for WIHRPGCRCKNSNTVYCTLESCPS, 2.55; for WWHRPGCRCKNSNTVYCKLESCPS, 2.12.
For WCHRPGCRCKNSNTVYCKLESCPS the value was 3.23; for WRHRPGCRCKNSNTVYCKLESCPS, 2.46.
Next, WDHRPGCRCKNSNTVYCKLESCPS: 3.9; WVHRPGCRCKNSNTVYCKLESCPS: 2.76.
On to WAHRPGCRCKNSNTVYCKLESCPS, for which the protein stability index was 2.68.
Consider WSHRPGCRCKNSNTVYCKLESCPS, for which the protein stability index is 3.27.
In the case of WGHRPGCRCKNSNTVYCKLESCPS, the protein stability index worked out at 2.73.
For WKHRPGCRCKNSNTVYCKLESCPS the value was 3.39; for WEHRPGCRCKNSNTVYCKLESCPS, 3.89.
For WMHRPGCRCKNSNTVYCKLESCPS the value was 2.4.
As to WTHRPGCRCKNSNTVYCKLESCPS, the protein stability index was found to be 3.13.
Consider WIHRPGCRCKNSNTGYCKLESCPS, for which the protein stability index was found to be 2.69.
Next, WIHRPGCRCKNSNTNYCKLESCPS: 2.68; WIHRPGCRCKNSNTRYCKLESCPS: 2.67.
Turning to WIHRPGCRCKNSNTYYCKLESCPS, the protein stability index stood at 1.6.
Consider WIHRPGCRCKNSNTMYCKLESCPS, for which the protein stability index was 1.74.
For WIHRPGCRCKNSNTAYCKLESCPS the value was 2.41.
Next, WIHRPGCRSKNSNTVYCKLESCPS: 3.7; WIHRPGCRGKNSNTVYCKLESCPS: 1.73.
For the variant WIHRPGCRDKNSNTVYCKLESCPS, the protein stability index was 2.07.
WIHRPGCRPKNSNTVYCKLESCPS: the protein stability index was found to be 2.4.
For WIHRPGCRHKNSNTVYCKLESCPS the value was 1.85; for WIHRPGCRRKNSNTVYCKLESCPS, 1.45.
Next, WIHRPGCRTKNSNTVYCKLESCPS: 1.49.
Next, WIHRPGCRCKNSNTVMCKLESCPS: 2.02.
Consider WIHRPGCRCKNSNTVACKLESCPS, for which the protein stability index was found to be 3.71.
Next, WIHRPGCRCKNSNTVQCKLESCPS: 2.46.
For WIHRPGCRCKNSNTVHCKLESCPS the value was 2.65.
As for WIHRPGCRCKNSNTVLCKLESCPS, the protein stability index came to 2.28.
With WIHRPGCRCKNSNTVDCKLESCPS, the protein stability index was 2.91.
In the case of WIHRPGCRCKNSNTVICKLESCPS, the protein stability index is 1.87.
Next, WIHRPGCRCKNSNTVNCKLESCPS: 3.56.
On to WIHRPGCRCKNSNTVSCKLESCPS, for which the protein stability index turned out to be 2.92.
Regarding WIHRPGCRCKNSNTVGCKLESCPS, the protein stability index is 2.75.
For WIHRPGCRCKNSNTVKCKLESCPS the value was 2.05.
Take WIHRPGCRCKNSNTVVCKLESCPS: the protein stability index was found to be 2.91.
For WIHRPGCRCKNSNTVFCKLESCPS the value was 1.74.
For WIHRPGCRCKNSNTVWCKLESCPS the value was 2.68.
Take WIHRPGCGCKNSNTVYCKLESCPS: the protein stability index was 2.81.
Consider WIHRPGCCCKNSNTVYCKLESCPS, for which the protein stability index is 2.25.
Next, WIHRPGCHCKNSNTVYCKLESCPS: 2.63.
On to WIHRPGCNCKNSNTVYCKLESCPS, for which the protein stability index was found to be 3.28.
Next, WIHRPGCVCKNSNTVYCKLESCPS: 2.57; WIHRPGCDCKNSNTVYCKLESCPS: 2.67.
WIHRPGCKCKNSNTVYCKLESCPS: the protein stability index stood at 2.68.
Next, WIHRPGCPCKNSNTVYCKLESCPS: 2.4.
For WIHRPGCRCKSSNTVYCKLESCPS the value was 2.7; for WIHRPGCRCKTSNTVYCKLESCPS, 2.1; for WIHRPGCRCKISNTVYCKLESCPS, 1.86.
Next, WIHRPGCRCKYSNTVYCKLESCPS: 2.07.
